Measurements taken from patent US20240240209A1, “SYNTHESIS OF ENANTIOPURE CIS-A-IRONE FROM A RENEWABLE CARBON SOURCE” (Agency for Science, Technology and Research, priority 2021, published 2024).

Key:
[1] = Purified pMT7/pMT10 reaction with auxiliary enzymes mtn and mtaD; assay type: biochemical; details: 20 μM SAH introduced in the purified enzymatic reaction
Excerpt: All the purified enzyme reactions were done in triplicates.
An alternative strategy to reduce SAH inhibition is to introduce auxiliary enzymes that degrade SAH12 (FIG. 18a). […] Noteworthy, with mtaD enzyme, cis-α-irone production by pMT10 was improved by ˜2.5 fold as compared to pMT10 reaction alone (FIG. 3c). […] This somewhat agrees with the effect of mutating D135, which abolishes the hydrogen bond interaction between pMT7 and the amine group of the adenine moiety.

[2] = In-vivo cis-α-irone production screening of pMT7 and pMT12 mutants; assay type: cell-based, Escherichia coli; details: for Fold change in in-vivo cis-α-irone production: mutations made to pMT12, normalized to pMT12 (=1)
How it was run: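 E. coli BL21(DE3) ΔaroA ΔaroB ΔaroC ΔserC strains, with or without ΔmetJ, carried the plasmids and were grown in 1 ml auto-inducing defined medium (glucose/glycerol, 30 mM lactose) at 28 °C for 3 days. Products were extracted into hexane and measured by GC-MS. Production is a semi-quantitative fold change relative to pMT12.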

[3] = Cell lysate reaction of pMT enzymes with psi-ionone, irones quantified by HS-SPME-GCMS; assay type: biochemical; details: for in-vitro production of cis-α-irone (in words): single mutations vs parent (pMT7 or pMT12)
How it was run: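 pMT1 site-saturation mutants were expressed in E. coli BL21(DE3) and lysed, and lysates were incubated 2 days at 28 °C with 0.2 mM SAM and 10 mg/L psi-ionone (plus caryophyllene) in 50 mM Tris pH 7, 10 mM MgCl2. Cis-α-irone was measured by HS-SPME-GCMS peak area and given as fold change over non-mutated enzyme.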

Molecule	Fold change in in-vivo cis-α-irone production [2]	in-vitro production of cis-α-irone (in words) [3]	further results
mtn: 5′-methylthioadenosine/S-adenosylhomocysteine nucleosidase, auxiliary enzyme hydrolysing SAH (protein, UniProt P0AF12 1-232, looked up) 5'-methylthioadenosine/S-adeno …: MKIGIIGAMEEEVTLLRDKIENRQTISLGGCEIYTGQLNGTEVALLKSGIGKVAAALGATLLLEHCKPDVIINTGSAGGLAPTLKVGDIVVSDEARYHDADVTAFGYEYGQLPGCPAGFKADDKLIAAAEACIAELNLNAVRGLIVSGDAFINGSVGLAKIRHNFPQAIAVEMEATAIAHVCHNFNVPFVVVRAISDVADQQSHLSFDEFLAVAAKQSSLMVESLVQKLAHG	–	–	effect of supplementary auxiliary enzyme on pMT7 and pMT10 activity [1]: restored pMT7 and pMT10 activity
mtaD: 5-methylthioadenosine/S-adenosylhomocysteine deaminase, auxiliary enzyme deaminating SAH (protein, UniProt Q9X034 1-406, looked up) 5-methylthioadenosine/S-adenos …: MIIGNCLILKDFSSEPFWGAVEIENGTIKRVLQGEVKVDLDLSGKLVMPALFNTHTHAPMTLLRGVAEDLSFEEWLFSKVLPIEDRLTEKMAYYGTILAQMEMARHGIAGFVDMYFHEEWIAKAVRDFGMRALLTRGLVDSNGDDGGRLEENLKLYNEWNGFEGRIFVGFGPHSPYLCSEEYLKRVFDTAKSLNAPVTIHLYETSKEEYDLEDILNIGLKEVKTIAAHCVHLPERYFGVLKDIPFFVSHNPASNLKLGNGIAPVQRMIEHGMKVTLGTDGAASNNSLNLFFEMRLASLLQKAQNPRNLDVNTCLKMVTYDGAQAMGFKSGKIEEGWNADLVVIDLDLPEMFPVQNIKNHLVHAFSGEVFATMVAGKWIYFDGEYPTIDSEEVKRELARIEKELYSS	–	–	effect of supplementary auxiliary enzyme on pMT7 and pMT10 activity [1]: restored pMT7 and pMT10 activity
pMT12: pMT1 with Y200F S182E L273V L180A A202L Y65F C156D T91P N231D (protein, Modified from pMT1, pMT1 with Y200F S182E L273V L180A A202L Y65F C156D T91P N231D) MPQEARTPQQQVTADEVGDWYDKFGEVYHLTLGESVHCGLWFPPDAPVPQDMELVTMSSQAQDRFTDYLIETLDPKAGQHLLDIGCGTGRPALKAARQRGIAVTGVAVSKEQIAAANRLAAGHGLTERLTFEVADAMRLPYEDESFDCAWAIESLDHMDRAKALGEAWRVLKPGGDLLVAEEVVTEELTEPETALFETLFALNVPPRLGEFFDIVSGAGFHTLSLKDLSADLAMTMNVFALGVYSRRAEFTERFGAEFVDGLLAGLGSAQETVIRKTRFFMATLRKPAV	1	–	irone production / methyltransferase activity towards psi-ionone (in words) ([3]; cell lysate reaction, vs parent or control): maintained the percentage of cis-α-irone produced while further improving the absolute amount produced
A95C: pMT12 with A95C (protein, Modified from pMT1) MPQEARTPQQQVTADEVGDWYDKFGEVYHLTLGESVHCGLWFPPDAPVPQDMELVTMSSQAQDRFTDYLIETLDPKAGQHLLDIGCGTGRPALKCARQRGIAVTGVAVSKEQIAAANRLAAGHGLTERLTFEVADAMRLPYEDESFDCAWAIESLDHMDRAKALGEAWRVLKPGGDLLVAEEVVTEELTEPETALFETLFALNVPPRLGEFFDIVSGAGFHTLSLKDLSADLAMTMNVFALGVYSRRAEFTERFGAEFVDGLLAGLGSAQETVIRKTRFFMATLRKPAV	0.95	moderate increase	–
F212L: pMT12 with F212L (protein, Modified from pMT1) MPQEARTPQQQVTADEVGDWYDKFGEVYHLTLGESVHCGLWFPPDAPVPQDMELVTMSSQAQDRFTDYLIETLDPKAGQHLLDIGCGTGRPALKAARQRGIAVTGVAVSKEQIAAANRLAAGHGLTERLTFEVADAMRLPYEDESFDCAWAIESLDHMDRAKALGEAWRVLKPGGDLLVAEEVVTEELTEPETALFETLFALNVPPRLGEFLDIVSGAGFHTLSLKDLSADLAMTMNVFALGVYSRRAEFTERFGAEFVDGLLAGLGSAQETVIRKTRFFMATLRKPAV	1.11	moderate increase	–
S268H: pMT12 with S268H (protein, Modified from pMT1) MPQEARTPQQQVTADEVGDWYDKFGEVYHLTLGESVHCGLWFPPDAPVPQDMELVTMSSQAQDRFTDYLIETLDPKAGQHLLDIGCGTGRPALKAARQRGIAVTGVAVSKEQIAAANRLAAGHGLTERLTFEVADAMRLPYEDESFDCAWAIESLDHMDRAKALGEAWRVLKPGGDLLVAEEVVTEELTEPETALFETLFALNVPPRLGEFFDIVSGAGFHTLSLKDLSADLAMTMNVFALGVYSRRAEFTERFGAEFVDGLLAGLGHAQETVIRKTRFFMATLRKPAV	1.26	moderate increase	–
Q60V: pMT7 with Q60V (protein, Modified from pMT1) MPQEARTPQQQVTADEVGDWYDKFGEVYHLTLGESVHCGLWFPPDAPVPQDMELVTMSSKAQDRFTDYLIETLDPKAGQHLLDIGCGTGRTALKAARQRGIAVTGVAVSKEQIAAANRLAAGHGLTERLTFEVADAMRLPYEDESFDCAWAIESLCHMDRAKALGEAWRVLKPGGDLLVAEEVVTEELTEPETALFETLFALNVPPRLGEFFDIVSGAGFHTLSLKDLSANLAMTMNVFALGVYSRRAEFTERFGAEFVDGLLAGLGSAQETVIRKTRFFMATLRKPAV	–	increased the cis-α-irone production in-vitro	in-vivo production of cis-α-irone (in words) ([2]; single mutations vs parent (pMT7 or pMT12)): increased cis-α-irone production in-vivo
E190A (protein, Modified from pMT1) MPQEARTPQQQVTADEVGDWYDKFGEVYHLTLGESVHCGLWFPPDAPVPQDMELVTMSSQAQDRFTDYLIETLDPKAGQHLLDIGCGTGRPALKAARQRGIAVTGVAVSKEQIAAANRLAAGHGLTERLTFEVADAMRLPYEDESFDCAWAIESLDHMDRAKALGEAWRVLKPGGDLLVAEEVVTEELTAPETALFETLFALNVPPRLGEFFDIVSGAGFHTLSLKDLSADLAMTMNVFALGVYSRRAEFTERFGAEFVDGLLAGLGSAQETVIRKTRFFMATLRKPAV	1.12	–	–
